Results on one molecule are retold here after patent US20230257726A1 (published 2023).

The term Kd denotes a measure of binding affinity in units of concentration.

The assay deals with Wild-type ACE2(740)-Fc (human). The assay can be described thus: BLI, ACE2-Fc on tips, RBD in solution.
Wild-type ACE2(740)-Fc (human), sequence (chain, as listed by the source): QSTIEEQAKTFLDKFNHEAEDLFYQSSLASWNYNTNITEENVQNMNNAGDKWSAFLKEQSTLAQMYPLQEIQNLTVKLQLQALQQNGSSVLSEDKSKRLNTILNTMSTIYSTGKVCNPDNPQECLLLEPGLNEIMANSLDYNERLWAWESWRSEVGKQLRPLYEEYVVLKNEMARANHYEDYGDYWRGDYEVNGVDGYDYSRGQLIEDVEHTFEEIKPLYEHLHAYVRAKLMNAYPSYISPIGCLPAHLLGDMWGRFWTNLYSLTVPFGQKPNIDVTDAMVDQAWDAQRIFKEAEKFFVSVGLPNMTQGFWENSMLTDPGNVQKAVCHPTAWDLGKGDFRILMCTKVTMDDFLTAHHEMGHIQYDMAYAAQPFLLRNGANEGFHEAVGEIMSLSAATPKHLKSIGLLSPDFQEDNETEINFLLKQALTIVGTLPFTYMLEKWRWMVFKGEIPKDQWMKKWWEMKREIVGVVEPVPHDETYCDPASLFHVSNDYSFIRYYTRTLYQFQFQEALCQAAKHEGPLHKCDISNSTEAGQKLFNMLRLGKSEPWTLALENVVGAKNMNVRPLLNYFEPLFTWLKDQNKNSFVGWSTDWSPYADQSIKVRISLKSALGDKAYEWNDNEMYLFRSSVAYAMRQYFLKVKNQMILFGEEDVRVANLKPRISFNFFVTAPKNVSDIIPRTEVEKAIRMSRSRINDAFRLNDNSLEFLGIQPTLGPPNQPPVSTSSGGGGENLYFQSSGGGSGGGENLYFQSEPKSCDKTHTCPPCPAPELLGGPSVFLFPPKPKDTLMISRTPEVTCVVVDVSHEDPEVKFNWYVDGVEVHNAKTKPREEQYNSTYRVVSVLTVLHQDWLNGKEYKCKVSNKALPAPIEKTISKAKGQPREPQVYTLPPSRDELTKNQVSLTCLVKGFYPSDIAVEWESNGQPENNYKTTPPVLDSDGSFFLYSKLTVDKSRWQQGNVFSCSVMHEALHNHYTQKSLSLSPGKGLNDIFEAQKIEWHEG

B1: Human coronavirus NL63 (HCoV-NL63) spike RBD (ligand)
chain: QHTDINFTATASFGGSCYVCKPHQVNISLNGNTSVCVRTSHFSIRYIYNRVKSGSPGDSSWHIYLKSGTCPFSFSKLNNFQKFKTICFSTVEVPGSCNFPLEATWHYTSYTIVGALYVTWSEGNSITGVPYPVSGI
In turn, B1 yielded a Kd of 22 nM.
